What was measured:
[1] = molecular target: Escherichia coli dUTPase Q93H mutant (Escherichia coli); test: crystal structure; EcDUT^Q93H with 5 mM dUPNPP; hanging drop, 0.1 M TRIS, 18-33.75 % PEG 3350, 400 mM NaAc, pH 7.5, 295 K
[2] = molecular target: Escherichia coli dUTPase Q93R mutant (Escherichia coli)
[3] = molecular target: Escherichia coli dUTPase Q93H mutant (Escherichia coli)
[4] = molecular target: Escherichia coli dUTPase Q93R mutant (Escherichia coli); test: steady-state enzyme inhibition; 50 nM dUTPase, 0-400 nM Stl, 5 min pre-incubation at 20 °C, 30 µM dUTP; 1 mM HEPES, 150 mM KCl, 5 mM MgCl2, 40 µM phenol red, pH 7.5; quadratic equation fitted, K is the Ki (IC50)
[5] = molecular target: Escherichia coli dUTPase Q93H mutant (Escherichia coli); test: as above

stoichiometry N [1]	Substance	decrease of the steady-state velocity of dUTPase on Stl addition [2] [%]	decrease of the steady-state velocity of dUTPase on Stl addition [3] [%]	Ki [4] [nM]	Ki [5] [nM]
3	Escherichia coli dUTPase Q93H mutant (enzyme)	–	–	–	–
–	Stl_(SaPIbov1) protein (staphylococcal repressor) (natural protein)	47	58	5.9	4.83
